Reference: US20060269997A1 (Genentech, published 2006)

Tests used:
[1] = biological target: KDR receptor (soluble RIA of Examples 6 and 8) (UniProt P35968); assay: soluble radio-immuno receptor-binding assay (RIA)
[2] = biological target: T1, KDR on KDR-transfected NIH3T3 cells (UniProt P35968 20-1356, limits assumed); assay: competitive displacement of 125I-VEGF (legend: 1-165; Example 7: 1-109) from KDR-transfected NIH3T3 cells
T1 construct: whole, on cells; also called KDR expressing NIH3T3 cells; KDR-transfected 3T3 cells
Procedure: (§1) KDR or Flt-1 transfected NIH3T3 cells were prepared as described by Fuh et al., J. Biol. Chem., 273:11187-11204 (1998). The transfected cells were maintained in F12 media supplemented with 10% FBS and 400 ug/ml G418 (GibcoBRL). For the binding assays, the cells were plated in 12-wells plates at 1×10⁶/well to reach confluency next day. […] The plates were incubated at 4° C. for three hours and then washed two times with HBS with […].

[3] = biological target: T2, Flt-1 on Flt-1-transfected NIH3T3 cells (UniProt P17948 27-1338, limits assumed); assay: competitive displacement of 125I-VEGF (legend: 1-165; Example 7: 1-109) from Flt-1-transfected NIH3T3 cells
T2 construct: whole, on cells; also called FLT-1 expressing NIH3T3 cells; Flt-1-transfected cells
Procedure: as §1

[4] = biological target: KDR on human umbilical vein endothelial cells (HUVEC) (human, UniProt P35968 20-1356); assay: cell-based or functional assay
[5] = biological target: gD-KDR receptor on CHO cells (UniProt P35968 20-1356); assay: cell-based or functional assay
[6] = biological target: T3, Flt-IgG (a chimeric Flt-human Fc molecule) (UniProt P17948 27-758, limits assumed); assay: competition ELISA vs biotinylated native VEGF, Flt-IgG captured by anti-Fc
T3 construct: Only described as a chimeric Flt-human Fc molecule; not shown: human Fc
Procedure: (§2) Receptor binding assays were performed in 96-well immunoplates (Maxisorp, Nunc-Immunoplate, Nalge Nunc International, Rochester, N.Y.). Each well was coated with 100 μl of a solution containing 2 μg/ml of rabbit F(ab′)2 to human IgG Fc (Jackson ImmunoResearch, West Grove, Pa.) in 50 mM carbonate buffer at pH 9.6 and incubated at 4° C. overnight. The supernatant was then discarded, the wells were washed three times in washing buffer (0.05% Tween 20 in PBS), and the plate was blocked (150 μl per well) with block buffer (0.5% BSA, 0.01% thimerosal in PBS) at room temperature for one hour. The supernatant was discarded, and the wells were washed.
The wells were filled with 100 μl of a solution containing Flt-IgG (a chimeric Flt-human Fc molecule) at 50 ng/ml in assay buffer (0.5% BSA, 0.05% Tween 20 in PBS). The wells were incubated at room temperature for 1 hour and then washed three times in wash buffer (0.05% Tween 20 in PBS).
(§3) Aliquots of the mixture (100 μl) were added to the precoated microtiter wells and the plate was incubated for 2 hours at room temperature. […] The wells were then incubated with 3,3′, 5,5′-tetramethyl benzidine (0.2 g/liter, Kirkegaard & Perry Laboratories, Gaithersburg, Md.) for about 10 minutes at room temperature. Absorbance was read at 450 nm on a Vmax plate reader (Molecular Devices, Menlo Park, Calif.).

KDR (1-3) monomer [7] = biological target: T4, KDR (1-3) monomer (UniProt P35968 20-327, limits assumed, biotin-labeled in the ELISA of Example 8); assay: competition ELISA vs biotinylated VEGF (8-109), soluble KDR (1-3) captured by MAKD5
T4 construct: domain: domains 1 to 3; Genentech reagent; also called domains 1 to 3 of KDR
Procedure: as §2, with “containing 8” for “containing 2”, “of a monoclonal antibody” for “of rabbit F(ab′)2”, “to KDR known as MAKD5 (Genentech, South San Francisco, Calif.)” for “to human IgG Fc (Jackson ImmunoResearch, West Grove, Pa.)”, “was” for “was then”
as §3, with “of this” for “of the”, “for 1 hour” for “for 2 hours”, “(0.2 gram/liter;” for “(0.2 g/liter,”
Titration curves were fit with a four-parameter nonlinear regression curve-fitting program (KaleidaGraph, Synergy Software, Reading, Pa.).

Flt-1 (1-3) monomer = biological target: T5, Flt-1 (1-3) monomer (UniProt P17948 27-331, limits assumed, biotin-labeled in the ELISA of Example 8); assay: competition ELISA: plate coated with VEGF (8-109), 100 pM biotin-labeled Flt1(1-3), serial dilutions of the competing VEGF (Example 8)
T5 construct: domain: domains 1 to 3; Genentech reagent; also called Flt(1-3); domains 1 to 3 of Flt-1
Procedure: (§4) After 1 hour, the plates were washed, and the bound protein stained with streptavidin horseradish peroxidase conjugate (Pharmacia) and assayed. Affinities were estimated as IC₅₀ values: the concentration of KDR(1-3) or Flt(1-3) that blocked 50% of protein binding.

KDR (1-3) monomer [8] = biological target: T4, KDR (1-3) monomer; assay: competition ELISA: plate coated with VEGF (8-109), 100 pM biotin-labeled KDR(1-3), serial dilutions of the competing VEGF (Example 8)
Procedure: as §4

T3 sequence (P17948 27-758 limits assumed, change not shown): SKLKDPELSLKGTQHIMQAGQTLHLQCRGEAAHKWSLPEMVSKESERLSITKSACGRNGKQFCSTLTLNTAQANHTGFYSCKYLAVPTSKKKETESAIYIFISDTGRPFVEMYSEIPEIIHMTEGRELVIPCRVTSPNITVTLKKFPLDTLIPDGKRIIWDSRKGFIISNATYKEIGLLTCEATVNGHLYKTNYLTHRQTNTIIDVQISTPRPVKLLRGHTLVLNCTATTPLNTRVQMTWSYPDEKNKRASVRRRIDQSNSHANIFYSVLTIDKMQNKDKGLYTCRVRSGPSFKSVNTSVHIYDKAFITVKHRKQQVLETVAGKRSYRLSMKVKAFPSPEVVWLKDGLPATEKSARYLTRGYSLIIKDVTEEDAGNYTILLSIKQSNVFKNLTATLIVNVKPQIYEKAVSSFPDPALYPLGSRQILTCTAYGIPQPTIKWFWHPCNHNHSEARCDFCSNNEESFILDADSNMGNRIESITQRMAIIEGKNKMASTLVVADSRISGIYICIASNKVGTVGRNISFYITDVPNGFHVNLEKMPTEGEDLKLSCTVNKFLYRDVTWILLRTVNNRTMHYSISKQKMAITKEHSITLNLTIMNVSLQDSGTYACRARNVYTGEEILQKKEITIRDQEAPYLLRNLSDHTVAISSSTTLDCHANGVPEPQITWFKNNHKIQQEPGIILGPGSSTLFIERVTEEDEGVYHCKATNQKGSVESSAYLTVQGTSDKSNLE
T4 sequence (P35968 20-327 limits assumed): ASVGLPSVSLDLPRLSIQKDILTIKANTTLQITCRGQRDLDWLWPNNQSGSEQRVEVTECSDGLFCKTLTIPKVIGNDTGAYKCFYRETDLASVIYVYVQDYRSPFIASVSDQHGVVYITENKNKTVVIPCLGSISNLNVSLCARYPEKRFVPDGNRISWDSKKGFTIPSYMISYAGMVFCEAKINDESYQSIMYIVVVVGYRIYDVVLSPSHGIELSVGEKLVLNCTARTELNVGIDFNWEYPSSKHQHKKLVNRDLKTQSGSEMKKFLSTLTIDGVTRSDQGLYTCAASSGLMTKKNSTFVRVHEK
Sequence of KDR on human umbilical vein endothelial cells (HUVEC) (P35968 20-1356): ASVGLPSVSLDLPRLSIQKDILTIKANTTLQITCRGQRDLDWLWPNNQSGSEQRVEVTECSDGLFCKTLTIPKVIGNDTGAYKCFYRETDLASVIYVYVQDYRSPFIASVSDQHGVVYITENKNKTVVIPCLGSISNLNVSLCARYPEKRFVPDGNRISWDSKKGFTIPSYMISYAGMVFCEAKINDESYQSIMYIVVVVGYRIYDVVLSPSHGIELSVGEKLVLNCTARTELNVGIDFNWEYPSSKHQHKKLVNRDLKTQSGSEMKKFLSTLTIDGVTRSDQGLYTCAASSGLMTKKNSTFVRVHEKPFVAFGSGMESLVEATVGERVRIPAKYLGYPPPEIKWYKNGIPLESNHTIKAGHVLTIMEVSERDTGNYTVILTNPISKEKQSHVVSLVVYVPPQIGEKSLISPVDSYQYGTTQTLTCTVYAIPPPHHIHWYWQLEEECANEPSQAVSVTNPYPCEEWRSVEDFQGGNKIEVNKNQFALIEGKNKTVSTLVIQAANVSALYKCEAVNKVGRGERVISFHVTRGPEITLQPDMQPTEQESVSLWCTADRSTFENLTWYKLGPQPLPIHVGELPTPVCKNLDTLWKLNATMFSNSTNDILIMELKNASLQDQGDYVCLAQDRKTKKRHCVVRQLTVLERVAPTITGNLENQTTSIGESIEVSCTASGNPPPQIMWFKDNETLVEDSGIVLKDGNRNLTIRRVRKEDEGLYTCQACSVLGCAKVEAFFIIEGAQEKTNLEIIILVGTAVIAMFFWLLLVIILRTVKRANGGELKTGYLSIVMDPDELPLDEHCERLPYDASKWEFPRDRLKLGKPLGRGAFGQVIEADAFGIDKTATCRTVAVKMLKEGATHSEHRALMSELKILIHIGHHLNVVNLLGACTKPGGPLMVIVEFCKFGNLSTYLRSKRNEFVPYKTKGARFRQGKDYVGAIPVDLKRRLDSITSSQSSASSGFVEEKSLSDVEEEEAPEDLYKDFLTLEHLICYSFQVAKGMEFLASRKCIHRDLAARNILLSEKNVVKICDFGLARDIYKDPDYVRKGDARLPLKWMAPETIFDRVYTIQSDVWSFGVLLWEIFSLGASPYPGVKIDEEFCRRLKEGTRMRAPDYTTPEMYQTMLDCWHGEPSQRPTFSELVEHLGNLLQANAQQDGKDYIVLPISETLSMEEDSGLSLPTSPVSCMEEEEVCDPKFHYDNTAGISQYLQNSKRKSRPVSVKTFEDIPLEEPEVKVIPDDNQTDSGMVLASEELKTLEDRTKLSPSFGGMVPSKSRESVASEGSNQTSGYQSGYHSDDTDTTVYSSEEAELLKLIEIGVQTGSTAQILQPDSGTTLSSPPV
T2 sequence (P17948 27-1338 limits assumed): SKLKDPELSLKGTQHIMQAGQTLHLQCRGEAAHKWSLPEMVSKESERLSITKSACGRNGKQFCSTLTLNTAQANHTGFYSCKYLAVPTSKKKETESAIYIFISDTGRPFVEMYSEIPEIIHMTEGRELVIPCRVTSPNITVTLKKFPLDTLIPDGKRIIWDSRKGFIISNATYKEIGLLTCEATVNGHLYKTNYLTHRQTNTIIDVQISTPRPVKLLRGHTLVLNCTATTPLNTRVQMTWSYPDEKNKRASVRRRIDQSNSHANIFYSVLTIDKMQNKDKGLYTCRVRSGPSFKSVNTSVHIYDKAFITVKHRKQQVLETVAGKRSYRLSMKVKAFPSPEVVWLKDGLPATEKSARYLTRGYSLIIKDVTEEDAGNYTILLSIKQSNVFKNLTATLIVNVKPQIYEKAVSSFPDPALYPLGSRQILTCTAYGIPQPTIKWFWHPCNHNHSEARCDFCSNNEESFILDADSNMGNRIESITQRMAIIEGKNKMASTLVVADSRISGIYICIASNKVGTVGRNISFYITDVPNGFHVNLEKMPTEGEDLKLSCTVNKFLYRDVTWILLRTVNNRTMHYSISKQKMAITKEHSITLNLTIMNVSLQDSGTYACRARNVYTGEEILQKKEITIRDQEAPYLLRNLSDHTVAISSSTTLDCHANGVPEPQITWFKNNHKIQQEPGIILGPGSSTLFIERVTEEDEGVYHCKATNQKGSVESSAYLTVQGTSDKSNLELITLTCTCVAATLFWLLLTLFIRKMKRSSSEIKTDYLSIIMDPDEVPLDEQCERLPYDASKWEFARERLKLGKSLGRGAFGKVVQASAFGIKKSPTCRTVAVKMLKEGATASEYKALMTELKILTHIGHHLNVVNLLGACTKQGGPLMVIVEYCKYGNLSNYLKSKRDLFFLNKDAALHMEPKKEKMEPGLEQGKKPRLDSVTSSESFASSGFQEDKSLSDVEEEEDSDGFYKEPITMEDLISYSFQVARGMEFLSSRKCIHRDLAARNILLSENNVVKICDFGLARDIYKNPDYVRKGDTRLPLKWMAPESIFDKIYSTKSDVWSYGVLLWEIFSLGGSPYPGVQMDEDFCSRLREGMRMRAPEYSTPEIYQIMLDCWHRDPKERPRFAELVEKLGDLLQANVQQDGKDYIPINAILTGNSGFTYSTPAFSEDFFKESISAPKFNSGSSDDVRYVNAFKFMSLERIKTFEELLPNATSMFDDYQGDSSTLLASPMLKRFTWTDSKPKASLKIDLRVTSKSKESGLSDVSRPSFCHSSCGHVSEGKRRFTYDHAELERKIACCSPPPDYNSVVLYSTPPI
T5 sequence (P17948 27-331 limits assumed): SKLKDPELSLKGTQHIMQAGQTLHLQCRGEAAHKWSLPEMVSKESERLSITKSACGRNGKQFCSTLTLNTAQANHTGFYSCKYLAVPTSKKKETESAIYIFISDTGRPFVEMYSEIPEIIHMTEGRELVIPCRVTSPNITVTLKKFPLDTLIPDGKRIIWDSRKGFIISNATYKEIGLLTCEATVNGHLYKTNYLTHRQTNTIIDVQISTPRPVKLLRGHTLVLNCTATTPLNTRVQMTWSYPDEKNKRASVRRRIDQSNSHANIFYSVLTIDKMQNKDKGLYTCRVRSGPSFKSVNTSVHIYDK
T1 sequence (P35968 20-1356 limits assumed): as the sequence (P35968 20-1356) above
Sequence of KDR receptor (soluble RIA of Examples 6 and 8) (P35968 20-764 limits assumed): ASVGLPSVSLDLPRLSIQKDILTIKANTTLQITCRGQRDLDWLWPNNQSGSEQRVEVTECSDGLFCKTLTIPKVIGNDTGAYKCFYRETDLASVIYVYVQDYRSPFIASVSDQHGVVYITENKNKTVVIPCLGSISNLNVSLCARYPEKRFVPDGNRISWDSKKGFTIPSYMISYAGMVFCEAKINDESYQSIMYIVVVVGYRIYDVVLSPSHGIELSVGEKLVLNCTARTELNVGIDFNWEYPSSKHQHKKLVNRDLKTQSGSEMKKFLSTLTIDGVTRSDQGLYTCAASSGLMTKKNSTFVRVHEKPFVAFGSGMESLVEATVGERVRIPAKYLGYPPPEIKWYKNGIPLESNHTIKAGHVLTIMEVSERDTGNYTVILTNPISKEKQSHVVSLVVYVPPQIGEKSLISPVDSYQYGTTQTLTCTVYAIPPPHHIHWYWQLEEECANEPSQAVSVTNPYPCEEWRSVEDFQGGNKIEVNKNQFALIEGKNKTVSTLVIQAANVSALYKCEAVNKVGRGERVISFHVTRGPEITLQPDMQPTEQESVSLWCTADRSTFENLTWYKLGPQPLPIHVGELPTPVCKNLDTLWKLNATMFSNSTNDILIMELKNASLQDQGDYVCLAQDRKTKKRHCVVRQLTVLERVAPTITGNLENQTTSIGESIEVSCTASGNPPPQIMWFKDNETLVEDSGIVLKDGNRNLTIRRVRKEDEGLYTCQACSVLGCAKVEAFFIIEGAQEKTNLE

B1: Flt-sel (I43A/I46A/Q79A/I83A, VEGF 1-109 form) (ligand, human, UniProt P15692-4 27-135, looked up)
chain: APMAEGGGQNHHEVVKFMDVYQRSYCHPIETLVDIFQEYPDEAEYAFKPSCVPLMRCGGCCNDEGLECVPTEESNITMAIMRAKPHQGQHIGEMSFLQHNKCECRPKKD
notes: also called Flt-1-sel; Flt-1 selective variant
For B1, the fold reduced KDR-binding affinity (against native VEGF) [1] was over 470 fold, the binding result [2] was “no binding (tested: log -6.7 M (about 2e-7 M))” and the binding result [3] was “binds”.

B2: LK-VRB-2s* (ligand, human, UniProt P15692-4 27-135, looked up)
chain: APMAEGGGQNHHEVVKFMDVYQRSYCHPIETLVDIFQEYPDEIEYIFKPSCVPLMRCGGCCNSEMRECVPTEESNITMQIMRIKPHQGQHIGEMSFLQHNKCECRPKKD
notes: also called KDR selective variant
With B2 the “IC50 (read off the curve)” value [2] was about 0.8 nM, the “Endothelial Cell Proliferation Activity (HUVEC, 3H-thymidine), concentration” value [4] was 0.05 nM and the “IC50 (read off the curve)” value [3] was about 10 nM. The “Phosphorylation-Inducing Activity (KIRA), midpoint concentration” value [5] was 2 nM.

B3: LK-VRB-5s (ligand, human, UniProt P15692-4 27-135, looked up)
chain: APMAEGGGQNHHEVVKFMDVYQRSYCHPIETLVDIFQEYPDEIEYIFKPSCVPLMRCGGCCNSEGRECVPTEESNITMQIMRIKPHQGQHIGEMSFLQHNKCECRPKKD
With B3 the IC50 [6] was 233 nM, the “Relative Binding Affinity (ratio to native VEGF (8-109))” value [6] was 550 fold and the IC50 (KDR (1-3) monomer [7]) was 1 nM. For the same binder, the “Relative Binding Affinity (ratio to native VEGF (8-109))” value (KDR (1-3) monomer [7]) was 1 fold, the “Phosphorylation-Inducing Activity (KIRA), midpoint concentration” value [5] was 1 nM and the “Phosphorylation-Inducing Activity (KIRA), ratio to native VEGF (8-109)” value [5] was 0.5 fold.

B4: LK-VRB-6s (ligand, human, UniProt P15692-4 27-135, looked up)
chain: APMAEGGGQNHHEVVKFMDVYQRSYCHPIETLVDIFQEYPDEIEYIFKPSCVPLMRCGGCCNSEATECVPTEESNITMQIMRIKPHQGQHIGEMSFLQHNKCECRPKKD
For B4, the IC50 [6] was 4 nM, the “Relative Binding Affinity (ratio to native VEGF (8-109))” value [6] was 10 fold and the IC50 (KDR (1-3) monomer [7]) was 0.5 nM. For the same binder, the “Relative Binding Affinity (ratio to native VEGF (8-109))” value (KDR (1-3) monomer [7]) was 0.5 fold, the “Phosphorylation-Inducing Activity (KIRA), midpoint concentration” value [5] was 1 nM and the “Phosphorylation-Inducing Activity (KIRA), ratio to native VEGF (8-109)” value [5] was 0.5 fold.

B5: Pro 106 (ligand)
chain: APMAEGGGQNHHEVVKFMDVYQRSYCHPIETLVDIFQEYPDEIEYIFKPSCVPLMRCGGCCNDEGLECVPTEESNITMQIMRIKPHQGQHIGEMSFLQHNKCECRAKKD
B5 was tested, and the “fold reduction in binding (IC50 variant / IC50 VEGF(1-109))” value (Flt-1 (1-3) monomer) was 1 fold and the “fold reduction in binding (IC50 variant / IC50 VEGF(1-109))” value (KDR (1-3) monomer [8]) was 1 fold.

B6: Tyr 21** (ligand)
chain: APMAEGGGQNHHEVVKFMDVAQRSYCHPIETLVDIFQEYPDEIEYIFKPSCVPLMRCGGCCNDEGLECVPTEESNITMQIMRIKPHQGQHIGEMSFLQHNKCECRPKKD
B6 was tested, and the “fold reduction in binding (IC50 variant / IC50 VEGF(1-109))” value (Flt-1 (1-3) monomer) was 29 fold and the “fold reduction in binding (IC50 variant / IC50 VEGF(1-109))” value (KDR (1-3) monomer [8]) was 19 fold.

B7: Tyr 25** (ligand)
chain: APMAEGGGQNHHEVVKFMDVYQRSACHPIETLVDIFQEYPDEIEYIFKPSCVPLMRCGGCCNDEGLECVPTEESNITMQIMRIKPHQGQHIGEMSFLQHNKCECRPKKD
With B7 the “fold reduction in binding (IC50 variant / IC50 VEGF(1-109))” value (Flt-1 (1-3) monomer) was 7 fold and the “fold reduction in binding (IC50 variant / IC50 VEGF(1-109))” value (KDR (1-3) monomer [8]) was 6 fold.

B8: LK-VRB-3s (ligand, human, UniProt P15692-4 27-135, looked up)
chain: APMAEGGGQNHHEVVKIEDVFKRSSCHPIETLVDIFQEYPDEIEYIFKPSCVPLMRCGGCCNDEGLECVPTEESNITMQIMRIKPHQGQHIGEMSFLQHNKCECRPKKD
With B8 the IC50 [6] was 170 nM, the “Relative Binding Affinity (ratio to native VEGF (8-109))” value [6] was 400 fold and the IC50 (KDR (1-3) monomer [7]) was 1 nM. The “Relative Binding Affinity (ratio to native VEGF (8-109))” value (KDR (1-3) monomer [7]) was 1 fold, the “Phosphorylation-Inducing Activity (KIRA), midpoint concentration” value [5] was 2 nM and the “Phosphorylation-Inducing Activity (KIRA), ratio to native VEGF (8-109)” value [5] was 1 fold.

B9: LK-VRB-4s (ligand, human, UniProt P15692-4 27-135, looked up)
chain: APMAEGGGQNHHEVVKIEDVFERSICHPIETLVDIFQEYPDEIEYIFKPSCVPLMRCGGCCNDEGLECVPTEESNITMQIMRIKPHQGQHIGEMSFLQHNKCECRPKKD
With B9 the IC50 [6] was 100 nM, the “Relative Binding Affinity (ratio to native VEGF (8-109))” value [6] was 200 fold and the IC50 (KDR (1-3) monomer [7]) was 1 nM. The “Relative Binding Affinity (ratio to native VEGF (8-109))” value (KDR (1-3) monomer [7]) was 1 fold, the “Phosphorylation-Inducing Activity (KIRA), midpoint concentration” value [5] was 1 nM and the “Phosphorylation-Inducing Activity (KIRA), ratio to native VEGF (8-109)” value [5] was 0.5 fold.

B10: LK-VRB-7s* (ligand, human, UniProt P15692-4 27-135, looked up)
chain: APMAEGGGQNHHEVVKFEDVYQRSYCHPIETLVDIFQEYPDEIEYIFKPSCVPLMRCGGCCNSEMRECVPTEESNITMQIMRIKPHQGQHIGEMSFLQHNKCECRPKKD
For B10, the “Endothelial Cell Proliferation Activity (HUVEC), ratio to native VEGF (8-109)” value [4] was 1 fold, the “Endothelial Cell Proliferation Activity (HUVEC, 3H-thymidine), concentration” value [4] was 0.5 nM and the IC50 (KDR (1-3) monomer [7]) was 1 nM. For the same binder, the “Relative Binding Affinity (ratio to native VEGF (8-109))” value (KDR (1-3) monomer [7]) was 1 fold.

B11: LK-VRB-8s* (ligand)
chain: APMAEGGGQNHHEVVKFMDVLQRSYCHPIETLVDIFQEYPDEIEYIFKPSCVPLMRCGGCCNSEMRECVPTEESNITMQIMRIKPHQGQHIGEMSFLQHNKCECRPKKD
B11 was tested, and the “Endothelial Cell Proliferation Activity (HUVEC), ratio to native VEGF (8-109)” value [4] was 1 fold, the “Endothelial Cell Proliferation Activity (HUVEC, 3H-thymidine), concentration” value [4] was 0.5 nM and the IC50 (KDR (1-3) monomer [7]) was 0.5 nM. For the same binder, the “Relative Binding Affinity (ratio to native VEGF (8-109))” value (KDR (1-3) monomer [7]) was 0.5 fold.

B12: LK-VRB-9s (ligand, human, UniProt P15692-4 27-135, looked up)
chain: APMAEGGGQNHHEVVKFMDVYRRSYCHPIETLVDIFQEYPDEIEYIFKPSCVPLMRCGGCCNSEMRECVPTEESNITMQIMRIKPHQGQHIGEMSFLQHNKCECRPKKD
With B12 the “Relative Binding Affinity (ratio to native VEGF (8-109))” value [6] was 300 fold, the IC50 (KDR (1-3) monomer [7]) was 0.5 nM and the “Relative Binding Affinity (ratio to native VEGF (8-109))” value (KDR (1-3) monomer [7]) was 0.5 fold.

B13: LK-VRB-2f (ligand, human, UniProt P15692-4 27-191, looked up)
chain: APMAEGGGQNHHEVVKFMDVYQRSYCHPIETLVDIFQEYPDEIEYIFKPSCVPLMRCGGCCNSEMRECVPTEESNITMQIMRIKPHQGQHIGEMSFLQHNKCECRPKKDRARQENPCGPCSERRKHLFVQDPQTCKCSCKNTDSRCKARQLELNERTCRCDKPRR
notes: also called KDR-selective VEGF variant; KDR-sel
B13 was tested, and the IC50 [6] was 19 nM and the “Endothelial Cell Proliferation Activity (HUVEC, 3H-thymidine), concentration” value [4] was 0.05 nM.

B14: WT VEGF (ligand, human, UniProt P15692-4 27-191, looked up)
VEGF monomer: APMAEGGGQNHHEVVKFMDVYQRSYCHPIETLVDIFQEYPDEIEYIFKPSCVPLMRCGGCCNDEGLECVPTEESNITMQIMRIKPHQGQHIGEMSFLQHNKCECRPKKDRARQENPCGPCSERRKHLFVQDPQTCKCSCKNTDSRCKARQLELNERTCRCDKPRR
In the case of B14, the “IC50 (read off the curve)” value [3] is reported as about 0.04 nM.
